Assay results from the DeepSol protein solubility set.

Experiment: soluble on expression in E. coli; label from the status in PepcDB or PDB records

Sequence | soluble on expression in E. coli
MAEIGIFVGTMYGNSLLVAEEAEAILTAQGHKATVFEDPELSDWLPYQDKYVLVVTSTTGQGDLPDSIVPLFQGIKDSLGFQPNLRYGVIALGDSSYVNFCNGGKQFDALLQEQSAQRVGEMLLIDASENPEPETESNPWVEQWGTLLS | soluble
MSLQEGEFEPTWESLQNYKVPEWFRNAKFGIWAHWGPQCVEGSGDWMARSLYLEGSREYKHHVEHYGHPSEVGFKDILPLFKAEKWDPDKLVSFYKKIGAQYFFALGNHHDNYDLWDSQYQEWNSVNIGPKKDILAGWAEAAKKNGLPFGISFHADHAWSWYEPAQRYDRHGEKAGVPYDGCLTKEDGKGKWWEGYDPQKLYAQNHPLSAGSWADGMIHRQWAWGNGVCIPTQEYVTNFYDRTVDAINRYNPDLIYFDVTGVPFYPISDAGLKIAAHFYNHNMVVRKGDFSAVMFGKILTDEQRKALVWDVERGSPNSIYEEPWQTCSCLGGWHYDTRLAENGWYKSASDVVKLLVDVVSKNGNLLLSVPLRADGTFDEKEEAILNEFGNWMSMNKEAIYDTRPWKVFGEGPIANADIKINAQGFNEGAYTKATASEIRFTQTKKYLYATVLAWPEEKQVVIQSLATGSELYPDKITKIELLGYGKVSFTRTAQGVVIDMPDVQLNKIAPVFKIKKEGHHHHHH | soluble
MRHREWSRATEGDRTMATTIATLTQKTDGILEGVFATIRVNAPIAIIPNASKSSEEAPDYRVIHRKTGFEIGAGWNRIARQTGEEYLSVKLEAPEIGVIFGNLAPAPGGDPSKKVILWNNPD | not soluble
SNQEKLQRTMIHFNNPEVQAFLAVNTFTITGHGETKQLTEMLRSVLNQLAAVSLTSLRRLAEALPKQSVDGKAPLATGEDDDDDEVPGIMENFDEASKNEAN | soluble
MAHHHHHHMRVPSLPIIIDEFPALAGSRSHSGSGSGSELFFLTHFHTDHMKGLSSAWTAGLIITGTITRQLLLNKFEGLRGRVLGLPFWCRTPVLSAAGAAHSETDSTTATAVPVVHVTLLPAFHIPGSAMIYIETPSGVTYLHTGDFKYTEAAAQMSSLRTFFQSHRVDHLYLDDTWLHLGHTELKSWPALTESPLVGHRGVGIANSGIRVLSKLLDADQVEEAIEAIGRRMDYQRQLHAQWVQQQSQCDSNGTAEALTPSSSSSSASAELSDARLPFIVRVYLHNQFGKELLIQQLAARLRTRALIDDARYARLLTVVEALEEERDDLEAFEGADPARLDGAAPPLSAEELAWRASGGEAARYPYDLNCFVSCSQAQQQKQQQLWARWRYDRGAMSPQQPQPPADHSVKRSCGPPLIEVVRNRASIEPATLQAASAARGGTPYYGVVISGWARLQSQTHGPAASGQVWQVPTTLHSTPQEIVDFVALLRPLSVTPLHYRPSRGEVVMQRLGPYLRVPFVNNHDTGCGATTAATAGRDAVALRGGVVRWMPYLPAYLLLSQMGGSDSRSGLGTSTLLGMLGARDAAAVCDNGLDALEEKPPRGFRIRPAGLPLPSSKAAVAASRSGGEAPGGCDSHTAAITASYFFAPSPTTTTSLPAQGMADVSGKATNPTDTSVSSRVRADGLRISTLLPSWRLSHLTQSYLSTQQSGGKRERVDVEMDGQSMVAHRAERHAATATKIESGERAAKAANDHDKDCPAVLLSSSATTGLLSLSDIADNVLA | not soluble
MGHHHHHHSHMGNCCWTQCFGLLRKEAGRLQRVGGGGGSKYFRTCSRGEHLTIEFENLVESDEGESPGSSHRPLTEEEIVDLRERHYDSIAEKQKDLDKKIQKEQERQRIVQQYHPSNNGEYQSSGPEDDFESCLRNMKSQYEVFRSSRLSSDATVLTPNTESSCDLMTKTKSTSGNDDSTSLDLEWEDEEGMNRMLPMRERSKTEEDILRAALKYSNKETGSNPTSASDDSNGLEWENDFVSAEMDDNGNSEYSGFVNPVLELSDSGIRHSDTDQQTR | soluble
MGSDKIHHHHHHMTLPMPEKFWDIRIHKVDIHPGVTGLCVGYERGVWRKDQFVRHAMDWLPEFALKESELKGVDSANMVQMVRDAATAIYKSEKFHKRGEFGELFLHMAKRQVFNSIPAVSKIYYKTARNDTVKGFDSVHVVEAEDGLELWLGEVKFYKDLNSAVADVVKELQGHTQTDYLRDEFNLIMNKVDRDWEHYETMKRLMSKNTSLDEVFKRACIPVLLTYESEAICQCSVCDEEYKKLFINEIREAYKLFSSKKLPTDIRIHLFLFPLASKPELIKALDKKLKLWQQL | not soluble
MGARCDVAVIGAGPAGCAAAIALKRLGVASVLLLEAGDGARPRFGESLPPDIRLILAQLGLAEAFAALGFDPCVGAASSWGEDGLGYNDFLFNPHGLGWHIDRARFDAFLRDAAVAAGAELRFDTVFDSVVMTGDAARLRVRGERGDETITAGFVLDATGRAARVARALGAERIESDRLVCAAALIRIDPDGLLGQRSLLEAVDYGWWYAARLSPDEAIVVVSTDADLLRARRLHRSDAWYGHLAATRHVAAALGTAAPPSQLMVRQARSSRLSRAADQRWRAIGDAASVYDPIMAQGVTKAMIEGLAAARDIVRHMPDAEEGLDARFADYLSLRDYFYGQEGRWPDAPFWTRRRRPQPAVRTLWEVSALEHHHHHH | not soluble
MSTAEQIATLENRINELELENKRLHETVAYLTRKLYGRSSEKTSALSVGQVSLFDEAEVYAVPQAPEPDLKEVQGYIRRKYKGQRTDLLKDIPHDKRLCTLAEEDRYCEACGTDLVSVGKEFIRTEIEFIPAKIRVIDYYRETFECRTCRKNGEPYMEKSPMPYPVIQHSMASPSTVAWIMHQKFVNHLPLYRQENEWKMLGVNLKRETMSNWILAAARDWLMPLVDLMHKKLLQEKYLHADETTVQVLNEEGRSNTTNSYMWVYSSGKYCKKQIRLFQYQPGRNGKYPQEFLKGFSGFLHTDAYSGYKKVPEITRCMCWTHLRRYFRDALPKDTQSPEATIPSQGIRFCNKLFEIEETLEKLTQEQRRLERLKQETPVLEAFWSWVDSVKDKVLPKSKIGEAIQYALNNKEDFMNYLLDGNCSISNNLSENSIRPFTLGRKNWLFSGSPRGADASAAVYSIVESAKANDINPYKYLYYIFSELPGVQFGQNPEFLEDYLPWSPDVQAACK | soluble
IGQVDFGIAGNFSYNKNEILDLGGGDPNKYLDATDGYSQRNKVGEAMNSYYIYRADGFFNSQEEADAYTAKYGNPFGKTFKAGDLRYVDTNKDGKLTADDREYCGSSDPKIIYGFNINAGWKGIDLSLMFNGAAGVKRLFDGYEVYGNFSGDAAHPATIWRDAWTPDNHDASMPRIFYDTNSASSSRSVQSDFWLQDTSYLRLKNLQLGYTLPKGWLNSVGVENIRIYYSVENLLTFDKMKINIDPESTSQRLSSYPLLRTHAFGVNVTF | not soluble
MSLEKKITPSELELNEFIKIINEMSGIDLTDKKNILALKLNKFLEGTNTKNFSEFLGKLKSNRQLKQETLDFVTIGETYFLRELAQLKEIIYYAKSLEKRVNILSAPCSSGEEVYSLALLAAQNFIKDMYILGVDINSSVIEKAKLGKYQGRTLQRLSESEKRRFFLESEDKFYTINKNELCTCKFELCNVFEEKFSRLGKFDIIASRNMIIYFDHESKLKLMERFHRILNDKGRLYVGNADLIPETIYFKKIFSPRGVYYEKEGHHHHHH | soluble
MKVLVPVKRLIDYNVKARVKSDGSGVDLANVKMSMNPFDEIAVEEAIRLKEKGQAEEIIAVSIGVKQAAETLRTALAMGADRAILVVAADDVQQDIEPLAVAKILAAVARAEGTELIIAGKQAIDNDMNATGQMLAAILGWAQATFASKVEIEGAKAKVTREVDGGLQTIAVSLPAVVTADLRLNEPRYASLPNIMKAKKKPLDEKTAADYGVDVAPRLEVVSVREPEGRKAGIKVGSVDELVGKLKEAGVI | soluble
MGSHHHHHHDITSLYKKAGSAAAVLEENLYFQGSFTMRRKVFEELVTATKILLNEGIMDTFGHISARDPEDPASFFLAQKLAPSLITVDDIQRFNLDGETSDNRPSYLERYIHSEIYKTRPDVQCVLHTHSPAVLPYCFVDTPLRPVTHMGAFIGESVPVYEIRDKHGDETDLFGGSPDVCADIAESLGSQTVVLMARHGVVNVGKSVREVVFRAFYLEQEAAALTAGLKIGNVKYLSPGEIKTAGKLVGAQIDRGWNHWSQRLRQAGLA | soluble
MKSSDRLFTGRSENYSKFRPSYPVGIVKMLTDKYGLKKEMVIADIGCGTGILARMFLENGNKVYCIDPNGEMLKFAKDELSSFGNAIIVRGSAENTGLEDHSVNVISAGQSFHWFDTDKAKVEFRRILTAPYMVVLIWNDRDIDDGFTAEYEKIVSAYGKNYQGTGSTGLPPDTIPQFFNWAYDYYQYQNYQELDLEGLKGRYLSTFYSITQEYPKFQAAMKALETAFNAFSVDGKVRIRYITKVFVGKLNPLEHHHHHH | soluble
MSLRQGKIRVVLADDHTMFRQGLKEMLLTGGDIEVVGEAEDGRAALEEIRRHKPDVAILDVEMPEMDAREVMVRLPEASPHTRAVIVTVFAEARLARELVRLGARAYVTKNATLQELLAAVRSAARAAGGDNVLLAVPRGLIEGSGGPEGCELSERELEILLLVARGLSNRQVASELHLAEATVKRHLANVYAKLNVGSRGEAVRKALSKGWFTSRDVTEGHHHHHH | soluble
MKDSAPELNVSSSETEEDKEEAKPDGEKDPDFNQSNGGTKRQKISHQNYIAYQKQVIRRSMRHRKVRGEKALLVSANQTLKELKIQIMHAFSVAPFDQNLSIDGKILSDDCATLGTLGVIPESVILLKADEPIADYAAMDDVMQGKDEFVLGIC | not soluble
MFTHVESFKSAFLEKLETMYGKSFKDSTTRDQYNTLGYMVREYMNSQWIATNESYRSGERKQMYYLSIEFLLGRLLGSNILNLGIRDVCEQGLSELGISLQQLEEVEADAGLGNGGLGRLAACFLDSLASLDLPGHGCGIRYKHGLFDQKIVDGYQVEFPEQWLLHENVWEVRRHDQAVEVSYFGNVEPLYIDGRLEFRHTNAEVIMAVPYDVPVVGYETSTVNTLRLWNAEPVPFPQNCKDILKYKRETEAVSEFLYPDDTHDEGKILRLKQQYFLVSASLQNIVRLHRERYGDLRQLHEKIAIHINDTHPVLAIPELMRILLDEEKLAWEEAWHITTQTISYTNHTTLSEALEKWPIHIFKPLLPRIYMIIEEINERFCHELWERYPYEWHRIEEMAIIAHDLVKMAHLAIVGSHSVNGVAKIHTEILKQREMRLFYEFYPDKFNNKTNGIAHRRWLMKANPQLTNLISEAIGTEWKKEPIKLQELQLVQYDASFQEKFAEVKQERKEILAERIHNTMGITIDPNSIFDVQVKRLHAYKRQLLNVLHILYLYNRLKEDASFTFYPRTFIFGAKASPGYYYAKKIIKLINELARKVNNDPYVSQYMKVIFLENYRVSLAEDIFPAADVSEQISTASKEASGTGNMKFMMNGAITLGTLDGANIEIKDRVGDDNCFIFGLTAEEVLHYYQNGGYRASDYYHHNGHIKKVVDQLTNGFFAQSGAEFEAIYDSLVIQNDEYFVLRDFGPYAERQEAVGRAYENRTKWLEMSILNIAQSGHFASDRTILQYSNEIWGIGNTVTQI | not soluble
MGHHHHHHSHMAFFRRSLMTENAVLQLRAERIARATRPFLARGNRVRRCQRCLLPEKLCLCSTITPAQAKSRFCLLMFDTEPMKPSNTGRLIADILPDTVAFQWSRTEPSQDLLELVQNPDYQPMVVFPASYADEQREVIFTPPAGKPPLFIMLDGTWPEARKMFRKSPYLDNLPVISVDLSRLSAYRLREAQAEGQYCTAEVAIALLDMAGDTGAAAGLGEHFTRFKTRYLAGKTQHLGSITAEQLESV | soluble
MLRTQAARLICNSRVITAKRTFALATRAAAYSRPAARFVKPMITTRGLKQINFGGTVETVYERADWPREKLLDYFKNDTFALIGYGSQGYGQGLNLRDNGLNVIIGVRKDGASWKAAIEDGWVPGKNLFTVEDAIKRGSYVMNLLSDAAQSETWPAIKPLLTKGKTLYFSHGFSPVFKDLTHVEPPKDLDVILVAPKGSGRTVRSLFKEGRGINSSYAVWNDVTGKAHEKAQALAVAIGSGYVYQTTFEREVNSDLYGERGCLMGGIHGMFLAQYDVLRENGHSPSEAFNETVEEATQSLYPLIGKYGMDYMYDACSTTARRGALDWYPIFKNALKPVFQDLYESTKNGTETKRSLEFNSQPDYREKLEKELDTIRNMEIWKVGKEVRKLRPENQ | not soluble
